Measured values: patent US20110263816A1
No end group written: not given here.

Experiments:
[1] = molecular target: E3gX, X = Arg
[2] = molecular target: E3gX, X = Asn
[3] = molecular target: E3gX, X = Asp
[4] = molecular target: E3gX, X = Cys
[5] = molecular target: E3gX, X = Gln
[6] = molecular target: E3gX, X = Glu
[7] = molecular target: E3gX, X = His
[8] = molecular target: E3gX, X = Lys
[9] = molecular target: E3gX, X = Phe
[10] = molecular target: E3gX, X = Ser
[11] = molecular target: E3gX, X = Trp
[12] = molecular target: E3gX, X = Tyr

B1: K3a,eRh2 (peptide)
peptide: KISALKQKESALEQKISALEK
modifications: also: Rh2(OAc)2 dirhodium centre bound through two Glu side chains, places not given here
% conv. at 24 h (covalent modification with diazo 1, MALDI-TOF MS) [1]: 73 % conv. | % conv. at 24 h (covalent modification with diazo 1, MALDI-TOF MS) [2]: 70 % conv. | % conv. at 24 h (covalent modification with diazo 1, MALDI-TOF MS) [3]: 53 % conv. | % conv. at 24 h (covalent modification with diazo 1, MALDI-TOF MS) [4]: 78 % conv. | % conv. at 24 h (covalent modification with diazo 1, MALDI-TOF MS) [5]: > 95 % conv. | % conv. at 24 h (covalent modification with diazo 1, MALDI-TOF MS) [6]: 76 % conv. | % conv. at 24 h (covalent modification with diazo 1, MALDI-TOF MS) [7]: 17 % conv. | % conv. at 24 h (covalent modification with diazo 1, MALDI-TOF MS) [8]: 8 % conv. | % conv. at 24 h (covalent modification with diazo 1, MALDI-TOF MS) [9]: > 95 % conv. | % conv. at 24 h (covalent modification with diazo 1, MALDI-TOF MS) [10]: 28 % conv. | % conv. at 24 h (covalent modification with diazo 1, MALDI-TOF MS) [11]: > 95 % conv. | % conv. at 24 h (covalent modification with diazo 1, MALDI-TOF MS) [12]: > 95 % conv.
